Data: patent US7211395 (dated 2007)
Bridges are numbered along the chain shown (N, C = ends).

Columns and labels:
rabbit serum albumin = biological target: T1, rabbit serum albumin (rabbit, UniProt P49065); assay: FP, pH 6.2, no NaCl
T1 chain: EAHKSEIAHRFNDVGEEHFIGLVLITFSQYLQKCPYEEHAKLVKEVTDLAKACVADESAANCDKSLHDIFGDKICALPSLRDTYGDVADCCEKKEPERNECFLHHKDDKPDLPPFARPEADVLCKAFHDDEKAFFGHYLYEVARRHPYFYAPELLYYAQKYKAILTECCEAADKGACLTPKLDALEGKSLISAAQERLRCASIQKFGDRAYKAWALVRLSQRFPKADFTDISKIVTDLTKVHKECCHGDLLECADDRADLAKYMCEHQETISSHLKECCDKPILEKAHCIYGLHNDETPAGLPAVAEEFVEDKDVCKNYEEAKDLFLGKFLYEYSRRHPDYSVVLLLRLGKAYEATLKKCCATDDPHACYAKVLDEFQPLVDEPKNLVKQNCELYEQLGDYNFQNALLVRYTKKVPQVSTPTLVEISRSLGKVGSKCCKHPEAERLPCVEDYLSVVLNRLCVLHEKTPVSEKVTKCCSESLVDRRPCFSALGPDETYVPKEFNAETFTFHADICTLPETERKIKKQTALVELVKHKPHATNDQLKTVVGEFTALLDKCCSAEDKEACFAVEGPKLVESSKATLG

pig serum albumin = biological target: T2, pig serum albumin (pig, UniProt P08835); assay: FP, pH 6.2, no NaCl
T2 chain: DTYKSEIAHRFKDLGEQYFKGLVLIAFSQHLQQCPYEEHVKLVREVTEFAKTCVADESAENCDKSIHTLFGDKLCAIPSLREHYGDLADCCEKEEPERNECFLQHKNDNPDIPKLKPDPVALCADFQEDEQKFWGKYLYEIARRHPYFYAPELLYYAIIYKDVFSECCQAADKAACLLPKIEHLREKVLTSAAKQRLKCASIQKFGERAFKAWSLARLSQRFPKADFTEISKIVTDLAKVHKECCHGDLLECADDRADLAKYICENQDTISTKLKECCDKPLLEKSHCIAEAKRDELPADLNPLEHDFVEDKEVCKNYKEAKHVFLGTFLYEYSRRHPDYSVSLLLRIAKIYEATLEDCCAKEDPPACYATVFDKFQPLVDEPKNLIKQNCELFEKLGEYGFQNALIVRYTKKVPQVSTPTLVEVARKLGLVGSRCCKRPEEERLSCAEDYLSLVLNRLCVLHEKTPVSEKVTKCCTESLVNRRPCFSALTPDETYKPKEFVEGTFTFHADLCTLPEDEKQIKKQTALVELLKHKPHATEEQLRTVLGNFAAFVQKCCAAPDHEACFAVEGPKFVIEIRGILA

chicken ovalbumin [1] = biological target: T3, chicken ovalbumin (chicken, UniProt P01012); assay: FP, pH 6.2, no NaCl
T3 chain: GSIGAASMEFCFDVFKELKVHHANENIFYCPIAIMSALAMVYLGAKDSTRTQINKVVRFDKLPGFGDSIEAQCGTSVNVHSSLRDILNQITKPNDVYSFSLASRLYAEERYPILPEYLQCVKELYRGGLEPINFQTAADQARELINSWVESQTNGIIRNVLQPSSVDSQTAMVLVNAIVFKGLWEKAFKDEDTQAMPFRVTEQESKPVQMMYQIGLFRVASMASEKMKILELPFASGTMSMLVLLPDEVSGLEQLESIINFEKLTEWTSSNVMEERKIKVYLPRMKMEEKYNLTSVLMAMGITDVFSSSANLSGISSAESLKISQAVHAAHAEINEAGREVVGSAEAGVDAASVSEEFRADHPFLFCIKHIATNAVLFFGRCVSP

chicken ovalbumin [2] = biological target: T3, chicken ovalbumin; assay: FP, PBS pH 7.4

With Ac-AEGTGDFWFCDRIAWYPQHLCEFLDPEGGGK(fluorescein)-NH2 (disulfide 10-21 (inferred)) [DX-236] the Kd (rabbit serum albumin) was 500 nM, the Kd (pig serum albumin) was 500 nM and the Kd (chicken ovalbumin [1]) was > 200000 nM. For the same binder, the Kd (chicken ovalbumin [2]) was > 200000 nM.
